B1: Wild-type E. coli GroES, 15N-labeled form (native heptamer) (natural protein)
chain: MNIRPLHDRVIVKRKEVETKSAGGIVLTGSAAAKSTRGEVLAVGNGRILENGEVKPLDVKVGDIVIFNDGYGVKSEKIDNEEVLIMSESDILAIVEA
modifications: uniformly 15N-labeled
notes: GroES co-chaperonin of Escherichia coli, wild type; concentrations are of the heptamer; also called 15N-labeled GroES; P (protein); source: E. coli BL21(DE3), expression plasmid pETESwild, purified as described previously
B2: single-ring mutant (SR1) of GroEL (R452E, E461A, S463A and V464A) (natural protein, E. coli, UniProt P0A6F5 1-548, looked up)
chain: MAAKDVKFGNDARVKMLRGVNVLADAVKVTLGPKGRNVVLDKSFGAPTITKDGVSVAREIELEDKFENMGAQMVKEVASKANDAAGDGTTTATVLAQAIITEGLKAVAAGMNPMDLKRGIDKAVTAAVEELKALSVPCSDSKAIAQVGTISANSDETVGKLIAEAMDKVGKEGVITVEDGTGLQDELDVVEGMQFDRGYLSPYFINKPETGAVELESPFILLADKKISNIREMLPVLEAVAKAGKPLLIIAEDVEGEALATLVVNTMRGIVKVAAVKAPGFGDRRKAMLQDIATLTGGTVISEEIGMELEKATLEDLGQAKRVVINKDTTTIIDGVGEEAAIQGRVAQIRQQIEEATSDYDREKLQERVAKLAGGVAVIKVGAATEVEMKEKKARVEDALHATRAAVEEGVVAGGGVALIRVASKLADLRGQNEDQNVGIKVALRAMEAPLEQIVLNCGEAPAAVANTVKGGDGNYGYNAATEEYGNMIDMGILDPTKVTRSALQYAASVAGLMITTECMVTDLPKNDAADLGAAGGMGGMGGMGGMM
notes: GroEL chaperonin of Escherichia coli with four mutations at the contact sites between the two rings, forming a single heptameric ring; Non-labeled; heptameric single ring; concentrations are of the heptamer; The PDB entries hold the wild-type double-ring parent; also called L (ligand); heptameric SR1; source: expression plasmid constructed from pEL-WT; expressed and purified as described …

Legend:
Settings in all cases: both partners purified
[1] = biological target: B2; experiment: NMR titration; 1H-15N HSQC of 21.4 uM 15N-labeled GroES with 0-42 uM SR1 (separate samples); 25°C; 3 mM ATP, 20 mM Tris-HCl, 100 mM KCl, 10 mM MgCl2, pH 7.5, 10% D2O; fit to single-step 1:1 binding (Eq 6)
[2] = biological target: B2; experiment: NMR titration; 1H-15N HSQC of 21.4 uM 15N-labeled GroES with 0-42 uM SR1 (separate samples); 20°C; 3.0 mM ADP, 20 mM Tris-HCl, 100 mM KCl, 10 mM MgCl2, pH 7.5, 10% D2O; fit to single-step 1:1 binding (Eq 6)
[3] = biological target: B2; experiment: NMR titration; 1H-15N HSQC of 21.4 uM 15N-labeled GroES with 0-42 uM SR1 (separate samples); 25°C; 3.0 mM ADP, 20 mM Tris-HCl, 100 mM KCl, 10 mM MgCl2, pH 7.5, 10% D2O; fit to single-step 1:1 binding (Eq 6)
[4] = biological target: B2; experiment: NMR titration; 1H-15N HSQC of 21.4 uM 15N-labeled GroES with 0-42 uM SR1 (separate samples); 30°C; 3.0 mM ADP, 20 mM Tris-HCl, 100 mM KCl, 10 mM MgCl2, pH 7.5, 10% D2O; fit to single-step 1:1 binding (Eq 6)
[5] = biological target: B1; experiment: NMR titration; van't Hoff plot of the Kb values from the NMR titrations at 20, 25 and 30°C; 3.0 mM ADP, 100 mM KCl, 10 mM MgCl2, pH 7.5

Ka [1] [M⁻¹]	Ka [2] [M⁻¹]	Ka [3] [M⁻¹]	Ka [4] [M⁻¹]	dH [5] [kcal/mol]	Binder
2.35e+06	141000	189000	223000	–	B1
–	–	–	–	8.39 ± 1.15	B2

Source: article PMC5653362, “Formation of the chaperonin complex studied by 2D NMR spectroscopy” (PLoS ONE, 2017)
